According to article PMC10208982, “Structural basis of catalytic activation in human splicing” (Nature, 2023):

Legend:
PRP2(137–1022) = target: T1, PRP2(137–1022) (human, UniProt O60231 137-1022); test: SEC; around 30 μg PRP2(137–1022) mixed with a 5-fold excess of cofactor in 100 μl, 1 h on ice; Superdex 200 Increase 10/300 GL; 20 mM HEPES-KOH pH 7.5, 100 mM KCl, 1.5 mM MgCl2, 5% glycerol; fractions analysed by SDS-PAGE; conditions: both partners purified
T1 construct: comprises the modelled NTD (pin, clip, hook) and the helicase core; The tag can be cleaved off with HRV-3C protease; also called recombinant PRP2; source: Sf9 or Hi5 insect cells, purified (Strep-Tactin, then SEC or Q Sepharose); also co-expressed with PPIL4 in Sf9, in lysate; not shown: Twin-StrepII, N-terminal, kept
T1 sequence (looked up): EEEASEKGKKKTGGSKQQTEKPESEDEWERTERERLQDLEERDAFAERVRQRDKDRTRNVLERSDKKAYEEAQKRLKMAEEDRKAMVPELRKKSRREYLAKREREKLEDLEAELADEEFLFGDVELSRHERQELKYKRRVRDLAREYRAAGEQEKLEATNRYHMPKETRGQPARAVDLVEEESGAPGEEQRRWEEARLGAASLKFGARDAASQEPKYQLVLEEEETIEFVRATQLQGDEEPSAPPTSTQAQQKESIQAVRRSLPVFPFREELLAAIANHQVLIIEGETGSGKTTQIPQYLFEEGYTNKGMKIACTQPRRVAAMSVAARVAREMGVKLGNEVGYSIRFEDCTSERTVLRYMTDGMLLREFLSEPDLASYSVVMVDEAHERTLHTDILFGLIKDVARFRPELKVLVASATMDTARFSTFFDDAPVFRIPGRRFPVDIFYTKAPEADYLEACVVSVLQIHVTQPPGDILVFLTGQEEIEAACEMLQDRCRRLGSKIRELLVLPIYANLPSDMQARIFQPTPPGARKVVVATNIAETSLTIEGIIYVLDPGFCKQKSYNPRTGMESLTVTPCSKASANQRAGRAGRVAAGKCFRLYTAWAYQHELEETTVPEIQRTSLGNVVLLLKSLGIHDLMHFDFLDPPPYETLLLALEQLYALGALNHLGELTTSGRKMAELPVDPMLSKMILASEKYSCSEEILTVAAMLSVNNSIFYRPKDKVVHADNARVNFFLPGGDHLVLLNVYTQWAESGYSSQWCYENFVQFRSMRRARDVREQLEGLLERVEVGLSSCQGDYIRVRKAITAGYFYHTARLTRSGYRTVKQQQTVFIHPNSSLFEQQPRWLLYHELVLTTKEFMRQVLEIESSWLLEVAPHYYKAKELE

[1] = target: T2, PRP2 (DHX16) 137-1022;GPKOW (Homo sapiens;Homo sapiens, UniProt O60231;Q92917 137-1022;1-476, |); test: EMSA; complex assembled in vitro; 2 mM Mg2+; EMSA: 50 nM RNA, 0.1-8 uM protein, 20 mM HEPES-KOH pH 7.5, 50 mM KCl, 2 mM MgCl2, 0.1 mg/ml BSA, 5% glycerol, 30 min room temperature; 5% native gel in Tris-glycine; conditions: protein: recombinant;recombinant; tags: N-terminal Twin-StrepII;N-terminal Twin-StrepII; copies: 1;1; label: Cy5 at 3' end of S3; 18 bp duplex, 3' overhang 30 nt on S4
T2 sequence 1: T1 sequence (looked up)
T2 sequence 2: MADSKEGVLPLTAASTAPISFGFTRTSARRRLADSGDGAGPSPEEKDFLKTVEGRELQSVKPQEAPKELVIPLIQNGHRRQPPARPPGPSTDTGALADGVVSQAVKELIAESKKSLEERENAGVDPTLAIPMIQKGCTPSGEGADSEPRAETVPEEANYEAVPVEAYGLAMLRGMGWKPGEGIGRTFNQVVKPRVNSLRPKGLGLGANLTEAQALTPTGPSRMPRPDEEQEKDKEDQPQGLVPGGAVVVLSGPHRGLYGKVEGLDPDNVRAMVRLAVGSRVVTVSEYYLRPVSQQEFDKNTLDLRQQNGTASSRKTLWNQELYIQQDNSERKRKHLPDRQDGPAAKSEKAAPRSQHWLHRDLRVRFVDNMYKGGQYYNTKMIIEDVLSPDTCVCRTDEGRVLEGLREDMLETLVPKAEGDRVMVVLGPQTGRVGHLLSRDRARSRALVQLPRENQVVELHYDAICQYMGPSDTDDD

PPIL4 = target: T3, PPIL4 (Homo sapiens, UniProt Q8WUA2 1-492); test: EMSA; no PRP2; 2 mM Mg2+; EMSA: 50 nM RNA, 0.1-8 uM protein, 20 mM HEPES-KOH pH 7.5, 50 mM KCl, 2 mM MgCl2, 0.1 mg/ml BSA, 5% glycerol, 30 min room temperature; 5% native gel in Tris-glycine; conditions: protein: recombinant; tags: untagged (Twin-StrepII removed by HRV-3C); label: Cy5 at 3' end of S3; 18 bp duplex, 3' overhang 30 nt on S4
T3 sequence: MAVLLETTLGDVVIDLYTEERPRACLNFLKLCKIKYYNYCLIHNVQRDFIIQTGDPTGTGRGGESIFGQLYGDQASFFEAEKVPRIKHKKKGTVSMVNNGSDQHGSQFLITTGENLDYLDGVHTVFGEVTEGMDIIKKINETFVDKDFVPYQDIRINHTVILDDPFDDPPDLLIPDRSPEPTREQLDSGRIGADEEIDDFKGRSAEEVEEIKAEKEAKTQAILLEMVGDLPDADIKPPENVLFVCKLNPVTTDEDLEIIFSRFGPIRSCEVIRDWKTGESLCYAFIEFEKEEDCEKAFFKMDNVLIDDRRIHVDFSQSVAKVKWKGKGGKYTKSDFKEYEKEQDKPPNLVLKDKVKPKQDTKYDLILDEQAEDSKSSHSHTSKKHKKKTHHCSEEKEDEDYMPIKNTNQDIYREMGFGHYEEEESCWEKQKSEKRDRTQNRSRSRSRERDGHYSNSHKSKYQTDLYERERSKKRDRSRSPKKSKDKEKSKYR

[2] = target: T4, PRP2 (DHX16) 137-1022;PPIL4 (Homo sapiens;Homo sapiens, UniProt O60231;Q8WUA2 137-1022;1-492, |); test: EMSA; purified co-expressed complex; 2 mM Mg2+; EMSA: 50 nM RNA, 0.1-8 uM protein, 20 mM HEPES-KOH pH 7.5, 50 mM KCl, 2 mM MgCl2, 0.1 mg/ml BSA, 5% glycerol, 30 min room temperature; 5% native gel in Tris-glycine; conditions: protein: recombinant;recombinant; tags: N-terminal Twin-StrepII;untagged (Twin-StrepII removed by HRV-3C); copies: 1;1; label: Cy5 at 3' end of S3; 18 bp duplex, 3' overhang 30 nt on S4
T4 sequence 1: T1 sequence (looked up)
T4 sequence 2: T3 sequence

GPKOW = target: T5, GPKOW (Homo sapiens, UniProt Q92917 1-476); test: EMSA; 2 mM Mg2+; EMSA: 50 nM RNA, 0.1-8 uM protein, 20 mM HEPES-KOH pH 7.5, 50 mM KCl, 2 mM MgCl2, 0.1 mg/ml BSA, 5% glycerol, 30 min room temperature; 5% native gel in Tris-glycine; conditions: protein: recombinant; tags: N-terminal Twin-StrepII; label: Cy5 at 3' end of S3; 18 bp duplex, 3' overhang 30 nt on S4
T5 sequence: T2 sequence 2

PRP2 (DHX16) 137-1022 = target: T6, PRP2 (DHX16) 137-1022 (Homo sapiens, UniProt O60231 137-1022); test: as above; conditions: protein: recombinant; tags: N-terminal Twin-StrepII; label: Cy5 at 3' end of S3; 18 bp duplex, 3' overhang 30 nt on S4
T6 sequence: T1 sequence (looked up)

Measured: binding result

B1: GPKOW (natural protein, human, UniProt Q92917 1-476, looked up)
chain: T2 sequence 2
notes: human GPKOW, codon-optimized synthetic gene (GeneArt); also called PRP2 cofactor GPKOW; source: Sf9 or Hi5 insect cells, purified (Strep-Tactin, SEC); not shown: Twin-StrepII, N-terminal, kept
binds: PRP2(137–1022)

B2: Cy5 RNA duplex with 30-nt 3' overhang (dsRNA)
RNA 1: GCGCCUACGGAGCUGGUGGCGUAGGCGCAAAAAAAAAAAAAAAAAAAA
RNA 2: CACCAGCUCCGUAGGCGC
not listed: PRP2(137–1022)
binds: all other assays above
